Assay results from the supplement of paper PMC6755084.

B1: F1*; the commonest letter at each place (parent)
chain: GAGACCGCAACTGAAAAGTTGTTATCACTTGTCGTAAGACACTTTGGATGGGTTGAAGTTCTGCACGTAGAAGCAAAAGGC

Variants of: B1
Assay: fraction ligated after 30 min (ligated reads / total reads); higher = more ligase activity
Details: with F1*sub RNA substrate (template-directed ligation), 42 °C
How it was run: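 The ligase ribozyme variants were produced by PCR amplification of oligo-pool templates, T7 transcription and purification on gel. Their ligated and unligated forms were gel-separated, then reverse transcribed with barcoded primers before MiSeq sequencing. Core bases were filtered at a quality of ≥20, and fraction ligated per variant was ligated reads over total reads.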
Variant GAGACCGCAACTGAAAAGTTGTTATCACTTGTCGTAAGACACTATGGATGGGTTGAAGTTCTGCACGTAGAAGCAAAAGGC [T44A] has a fraction ligated of 0.849. In the case of GAGACCGCAACTGAAAAGTTGTTATCACTTGTCGTAAGACACGTTGGAGGGGTTGAAGTTCTGCACGTAGAAGCAAAAGGC [T43G T49G], the fraction ligated is reported as 0.743. GAGACCGCAACTGAAAAGTTGTTATCACTTGTCGTAAGACACGTTGGAAGGGTTGAAGTTCTGCACGTAGAAGCAAAAGGC [T43G T49A] showed a fraction ligated of 0.76. GAGACCGCAACTGAAAAGTTGTTATCACTTGTCGTAAGACACGTTGGACGGGTTGAAGTTCTGCACGTAGAAGCAAAAGGC [T43G T49C] was tested, and the fraction ligated was 0.726. For GAGACCGCAACTGAAAAGTTGTTATCACTTGTCGTAAGACACTATGGATGGGTTGCAGTTCTGCACGTAGAAGCAAAAGGC [T44A A56C], the fraction ligated was 0.797. Variant GAGACCGCAACTGAAAAGTTGTTATCACTTGTCGTAAGACACTATGGATGGGTTGGAGTTCTGCACGTAGAAGCAAAAGGC [T44A A56G] has a fraction ligated of 0.777. GAGACCGCAACTGAAAAGTTGTTATCACTTGTCGTAAGACACTATGGATGGGTTGTAGTTCTGCACGTAGAAGCAAAAGGC [T44A A56T] gave a fraction ligated of 0.801. With GAGACCGCAACTGAAAAGTTGTTATCACTTGTCGTAAGACACGTTGGATGGGTTCAAGTTCTGCACGTAGAAGCAAAAGGC [T43G G55C] the fraction ligated was 0.247. With GAGACCGCAACTGAAAAGTTGTTATCACTTGTCGTAAGACACGTTGGATGGGTTAAAGTTCTGCACGTAGAAGCAAAAGGC [T43G G55A] the fraction ligated was 0.801. With GAGACCGCAACTGAAAAGTTGTTATCACTTGTCGTAAGACACGTTGGATGGGTTTAAGTTCTGCACGTAGAAGCAAAAGGC [T43G G55T] the fraction ligated was 0.765. With GAGACCGCAACTGAAAAGTTGTTATCACTTGTCGTAAGACACTATGGGTGGGTTGAAGTTCTGCACGTAGAAGCAAAAGGC [T44A A48G] the fraction ligated was 0.808. Variant GAGACCGCAACTGAAAAGTTGTTATCACTTGTCGTAAGACACTATGGTTGGGTTGAAGTTCTGCACGTAGAAGCAAAAGGC [T44A A48T] has a fraction ligated of 0.82. With GAGACCGCAACTGAAAAGTTGTTATCACTTGTCGTAAGACACTATGGCTGGGTTGAAGTTCTGCACGTAGAAGCAAAAGGC [T44A A48C] the fraction ligated was 0.758. In the case of GAGACCGCAACTGAAAAGTTGTTATCACTTGTCGTAAGACACGTGGGATGGGTTGAAGTTCTGCACGTAGAAGCAAAAGGC [T43G T45G], the fraction ligated is reported as 0.0141. For GAGACCGCAACTGAAAAGTTGTTATCACTTGTCGTAAGACACGTAGGATGGGTTGAAGTTCTGCACGTAGAAGCAAAAGGC [T43G T45A], the fraction ligated was 0.763. For GAGACCGCAACTGAAAAGTTGTTATCACTTGTCGTAAGACACGTCGGATGGGTTGAAGTTCTGCACGTAGAAGCAAAAGGC [T43G T45C], the fraction ligated was 0.319. GAGACCGCAACTGAAAAGTTGTTATCACTTGTCGTAAGACACTATAGATGGGTTGAAGTTCTGCACGTAGAAGCAAAAGGC [T44A G46A] gave a fraction ligated of 0.816. GAGACCGCAACTGAAAAGTTGTTATCACTTGTCGTAAGACACTATTGATGGGTTGAAGTTCTGCACGTAGAAGCAAAAGGC [T44A G46T] was tested, and the fraction ligated was 0.81. Work on GAGACCGCAACTGAAAAGTTGTTATCACTTGTCGTAAGACACTATCGATGGGTTGAAGTTCTGCACGTAGAAGCAAAAGGC [T44A G46C] yielded a fraction ligated of 0.793. GAGACCGCAACTGAAAAGTTGTTATCACTTGTCGTAAGACACTATGGATTGGTTGAAGTTCTGCACGTAGAAGCAAAAGGC [T44A G50T] showed a fraction ligated of 0.758. For GAGACCGCAACTGAAAAGTTGTTATCACTTGTCGTAAGACACTATGGATAGGTTGAAGTTCTGCACGTAGAAGCAAAAGGC [T44A G50A], the fraction ligated was 0.643. GAGACCGCAACTGAAAAGTTGTTATCACTTGTCGTAAGACACTATGGATCGGTTGAAGTTCTGCACGTAGAAGCAAAAGGC [T44A G50C] gave a fraction ligated of 0.442. GAGACCGCAACTGAAAAGTTGTTATCACTTGTCGTAAGACACGGTGGATGGGTTGAAGTTCTGCACGTAGAAGCAAAAGGC [T43G T44G] was tested, and the fraction ligated was 0.809. For GAGACCGCAACTGAAAAGTTGTTATCACTTGTCGTAAGACACGCTGGATGGGTTGAAGTTCTGCACGTAGAAGCAAAAGGC [T43G T44C], the fraction ligated was 0.809. With GAGACCGCAACTGAAAAGTTGTTATCACTTGTCGTAAGACACGATGGATGGGTTGAAGTTCTGCACGTAGAAGCAAAAGGC [T43G T44A] the fraction ligated was 0.808. GAGACCGCAACTGAAAAGTTGTTATCACTTGTCGTAAGACACTATGGATGGGTTGACGTTCTGCACGTAGAAGCAAAAGGC [T44A A57C] was tested, and the fraction ligated was 0.796. GAGACCGCAACTGAAAAGTTGTTATCACTTGTCGTAAGACACTATGGATGGGTTGAGGTTCTGCACGTAGAAGCAAAAGGC [T44A A57G] showed a fraction ligated of 0.812. In the case of GAGACCGCAACTGAAAAGTTGTTATCACTTGTCGTAAGACACTATGGATGGGTTGATGTTCTGCACGTAGAAGCAAAAGGC [T44A A57T], the fraction ligated is reported as 0.815. In the case of GAGACCGCAACTGAAAAGTTGTTATCACTTGTCGTAAGACACTATGTATGGGTTGAAGTTCTGCACGTAGAAGCAAAAGGC [T44A G47T], the fraction ligated is reported as 0.55. In the case of GAGACCGCAACTGAAAAGTTGTTATCACTTGTCGTAAGACACTATGCATGGGTTGAAGTTCTGCACGTAGAAGCAAAAGGC [T44A G47C], the fraction ligated is reported as 0.117. GAGACCGCAACTGAAAAGTTGTTATCACTTGTCGTAAGACACTATGAATGGGTTGAAGTTCTGCACGTAGAAGCAAAAGGC [T44A G47A] was tested, and the fraction ligated was 0.773. GAGACCGCAACTGAAAAGTTGTTATCACTTGTCGTAAGACACTATGGATGGGTTAAAGTTCTGCACGTAGAAGCAAAAGGC [T44A G55A] was tested, and the fraction ligated was 0.827. For GAGACCGCAACTGAAAAGTTGTTATCACTTGTCGTAAGACACTATGGATGGGTTCAAGTTCTGCACGTAGAAGCAAAAGGC [T44A G55C], the fraction ligated was 0.795. For GAGACCGCAACTGAAAAGTTGTTATCACTTGTCGTAAGACACTATGGATGGGTTTAAGTTCTGCACGTAGAAGCAAAAGGC [T44A G55T], the fraction ligated was 0.829.
